The values below come from publication PMC9249852, “Transcription factor paralogs orchestrate alternative gene regulatory networks by context-dependent cooperation with multiple cofactors”.

Conditions in all cases: protein: recombinant;recombinant; tags: N-terminal 6xHis (pQE30) and EGFP with TEV linker; C-terminal FLAG;N-terminal T7; C-terminal 6xHis; copies: 1;1; label: 5' biotin on strand 2 (SR1 primer); blunt
Series [1] concerns the target T1, EGFP-Scr-FLAG;T7-Dll-His (Drosophila melanogaster?;Drosophila …, UniProt P09077;P20009 1-417;1-327, |). Put plainly: biotin-DNA pull-down, anti-FLAG western; Dll increases Scr binding, concentration-dependent; Dll on DNA not probed; Pull-down in 1 ml: 500 ul protein in dialysis buffer (20 mM HEPES pH 8.0, 200 mM NaCl, 10% glycerol, 2 mM MgCl2, 0.05% Tween-20) + 500 ul probe mix with 200 ul.

The target in series [2] is T1, EGFP-Scr-FLAG;T7-Dll-His. Nature of the series: biotin-DNA pull-down, anti-FLAG western; Dll assists Scr binding; Dll on DNA not probed; Pull-down in 1 ml: 500 ul protein in dialysis buffer (20 mM HEPES pH 8.0, 200 mM NaCl, 10% glycerol, 2 mM MgCl2, 0.05% Tween-20) + 500 ul probe mix with 200 ul.
For series [3], the target named is T1, EGFP-Scr-FLAG;T7-Dll-His. Nature of the series: biotin-DNA pull-down, anti-FLAG western; Dll enhances Scr binding; Dll on DNA not probed; Pull-down in 1 ml: 500 ul protein in dialysis buffer (20 mM HEPES pH 8.0, 200 mM NaCl, 10% glycerol, 2 mM MgCl2, 0.05% Tween-20) + 500 ul probe mix with 200 ul.

T1 sequence (P09077 whole entry, chain 1 of 2): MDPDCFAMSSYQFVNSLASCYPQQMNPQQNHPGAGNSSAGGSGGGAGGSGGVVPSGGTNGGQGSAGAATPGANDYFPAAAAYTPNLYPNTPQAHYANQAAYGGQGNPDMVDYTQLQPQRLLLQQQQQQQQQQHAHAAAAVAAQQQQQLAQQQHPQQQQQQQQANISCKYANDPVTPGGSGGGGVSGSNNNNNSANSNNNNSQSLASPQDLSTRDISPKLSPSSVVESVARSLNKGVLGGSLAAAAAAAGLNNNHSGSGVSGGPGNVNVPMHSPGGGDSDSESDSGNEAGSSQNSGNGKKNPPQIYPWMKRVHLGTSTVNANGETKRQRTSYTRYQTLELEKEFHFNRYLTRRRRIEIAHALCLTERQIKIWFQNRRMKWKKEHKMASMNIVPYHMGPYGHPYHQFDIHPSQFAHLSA
T1 sequence (P20009 whole entry, chain 2 of 2): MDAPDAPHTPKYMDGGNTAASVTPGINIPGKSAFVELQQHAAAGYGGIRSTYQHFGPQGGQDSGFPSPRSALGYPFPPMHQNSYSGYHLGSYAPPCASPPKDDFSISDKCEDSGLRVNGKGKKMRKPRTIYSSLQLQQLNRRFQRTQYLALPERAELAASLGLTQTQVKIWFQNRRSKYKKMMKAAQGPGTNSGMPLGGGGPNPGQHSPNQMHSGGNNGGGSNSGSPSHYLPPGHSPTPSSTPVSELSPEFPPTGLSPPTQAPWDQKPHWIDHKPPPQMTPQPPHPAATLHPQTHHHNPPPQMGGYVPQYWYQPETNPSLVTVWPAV

B1: probe-Scr-Dll consensus (dsDNA)
DNA 1: TGGGCCTGGTAATTAATTTAATTATCCAGGTCGTATGCCGTCTTCTGCTTG
DNA 2: CAAGCAGAAGACGGCATACGACCTGGATAATTAAATTAATTACCAGGCCCA
For B1, the binding result in the series with EGFP-Scr-FLAG;T7-Dll-His [1] is reported as “binds”.

B2: probe-dpy (dpy-1) (dsDNA)
DNA 1: ATCGTTAAATTACCGCAATTTGCATGTTCGTATGCCGTCTTCTGCTTG
DNA 2: CAAGCAGAAGACGGCATACGAACATGCAAATTGCGGTAATTTAACGAT
B2: the binding result with EGFP-Scr-FLAG;T7-Dll-His [2] is “binds”.

B3: probe-dsx (dsx-1) (dsDNA)
DNA 1: AATATTTTATAAATTTAATAAATTGAGTCGTATGCCGTCTTCTGCTTG
DNA 2: CAAGCAGAAGACGGCATACGACTCAATTTATTAAATTTATAAAATATT
On to B3, for which the binding result with EGFP-Scr-FLAG;T7-Dll-His [3] is reported as “binds”.
